Measured values taken from publication PMC4116301.

What was measured:
[1] = target: Xenopus laevis Bonsai CENP-E (Xenopus laevis); experiment: single-molecule fluorescence brightness and photobleaching steps
[2] = target: microtubules (tubulin purified from cow brains) (cow) (UniProt Q6B856); experiment: co-sedimentation

## Xenopus laevis Bonsai CENP-E
[1]
  stoichiometry N: 2

## Xenopus laevis full-length CENP-E (natural protein)
[2]
  Kd: 24 nM
